Laboratory results reported in patent publication US20220001039A1, “COMPOSITIONS AND METHODS FOR DETECTING ACE2 EXPRESSION PROFILES” (Washington University, priority 2020, published 2022).
Read-outs that look alike come from different tables or passages of the source.

Legend:
[1] = test system: HEK293-hACE2 xenografts; parameters: species or system mice; conditions: mouse, in vivo
Description: Tumors were monitored and imaging commenced after reaching >200 mm3. […] PET images were reconstructed by an iterative three-dimensional maximum a priori algorithm. […] At 1, 4, and 20 h post-injection, the animals were sacrificed for tissue dissection. The organs of interest were collected, rinsed, blotted, weighed, and counted with a γ-counter (Perkin Elmer Wizard2). The total injected radioactivity per animal was determined from the measured radioactivity in an aliquot of the injectate. Data were expressed as a percent of injected activity per gram of tissue (% IA/g).

[2] = in vivo
Source text: Ex vivo biodistribution analysis of the tracer in these hACE2 expressing (and vehicle control) tumors recapitulated these imaging findings (FIG. 5A).

[3] = target: T1, ACE2 (Homo sapiens, UniProt Q9BYF1); parameters: from tissue; host or cells: organs of hACE2 transgenic mice, imaged in vivo by PET; species or system mice; conditions: mouse, in vivo
T1 sequence (Q9BYF1 18-805): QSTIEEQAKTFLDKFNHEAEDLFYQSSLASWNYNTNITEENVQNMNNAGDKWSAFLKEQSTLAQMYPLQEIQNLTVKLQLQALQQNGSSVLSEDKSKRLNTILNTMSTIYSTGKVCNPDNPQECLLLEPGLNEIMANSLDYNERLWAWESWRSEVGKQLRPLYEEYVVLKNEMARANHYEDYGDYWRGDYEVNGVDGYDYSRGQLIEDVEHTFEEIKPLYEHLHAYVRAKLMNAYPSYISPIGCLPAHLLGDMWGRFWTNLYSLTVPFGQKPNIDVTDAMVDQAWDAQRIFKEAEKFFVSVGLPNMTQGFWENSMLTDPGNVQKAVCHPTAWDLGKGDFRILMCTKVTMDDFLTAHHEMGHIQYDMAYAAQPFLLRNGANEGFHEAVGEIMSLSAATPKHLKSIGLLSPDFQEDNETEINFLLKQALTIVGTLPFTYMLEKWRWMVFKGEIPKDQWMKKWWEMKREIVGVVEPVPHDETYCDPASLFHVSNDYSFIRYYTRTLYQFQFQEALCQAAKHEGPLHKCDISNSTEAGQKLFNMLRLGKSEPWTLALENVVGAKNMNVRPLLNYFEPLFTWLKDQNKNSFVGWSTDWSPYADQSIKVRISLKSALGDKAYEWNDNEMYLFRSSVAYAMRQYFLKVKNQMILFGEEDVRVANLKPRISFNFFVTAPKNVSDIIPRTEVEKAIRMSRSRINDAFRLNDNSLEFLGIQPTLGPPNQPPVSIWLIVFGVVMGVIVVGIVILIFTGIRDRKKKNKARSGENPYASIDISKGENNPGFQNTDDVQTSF
Source text: PET images were reconstructed by an iterative three-dimensional maximum a priori algorithm.

[4] = Acute toxicity test / body weight monitoring in mice; type: in vivo
Description: The experiment was carried out in 10 mice at 4-weeks of age. […] The injection was repeated on day 0, day 4, day 11, day 18 and day 25, and the weight of the mice was recorded.

[5] = target: T1, ACE2; assay: 68Ga-HZ20 PET/CT in healthy volunteers (SUVmax)
[6] = clinical; conditions: human, in vivo, iv, total radioactivity, SUVmax
[7] = target: T1, ACE2; conditions: in vivo
[8] = type: physicochemical
Description: The solution was analyzed by radio-HPLC to assess the radiochemical purity. The HPLC was eluted with water-CH3CN system (Phase A: 0.1% TFA H2O; Phase B: 0.1% TFA CH3CN) using gradient elution (0-5 min 20% B; 5-10 min 20%-80% B; 10-12 min 80% B; 12-15 min 80%-20% B) at a flow rate of 1.0 mL/min. The radiolabeling yield was 59.9±3.9% (non-decay corrected, n=10) and the radiochemical purity was over 95%. […] At 1 h, 2 h, and 4 h time points, 10 μL aliquot was analyzed by radio-HPLC to assess the radiochemical purity.

[9] = target: T1, ACE2; conditions: in vivo; remark: listed apart in the source
[10] = healthy volunteers average, 90 min

SMILES: CC(C)C[C@@H]1NC(=O)[C@@H]2CCCN2C(=O)[C@H](CO)NC(=O)[C@@H](NC(=O)[C@H](Cc2c[nH]cn2)NC(=O)[C@H](CO)NC(=O)[C@H](Cc2ccc(O)cc2)NC(=O)[C@H](CC(=O)O)NC(=O)CNC(=O)CCC(C(=O)O)N2CCN(CC(=O)O)CCN(CC(=O)O)CC2)CSSC[C@@H](C(=O)N[C@H](C(=O)N[C@@H](Cc2ccc(O)cc2)C(=O)N2CCC[C@H]2C(=O)N[C@@H](CC(=O)O)C(=O)N2CCC[C@H]2C(=O)N[C@@H](CCC(=O)O)C(=O)NCC(=O)NCC(=O)NCC(N)=O)[C@@H](C)O)NC(=O)[C@H](CCCCN)NC(=O)[C@H](Cc2c[nH]c3ccccc23)NC(=O)[C@H](Cc2c[nH]c3ccccc23)NC(=O)[C@@H]2CCCN2C(=O)[C@H](Cc2ccc(O)cc2)NC(=O)[C@H](Cc2ccc(O)cc2)NC(=O)[C@H](CCCNC(=N)N)NC1=O (stereo partly shown) [64Cu-HZ20, metal not drawn]
- clearance from the blood pool [1]: rapid
- hACE2 tumor binding [1]: Greater hACE2 tumor binding
- kidney clearance [1]: greater kidney clearance
- signal distribution by PET [1]: highest signal in the kidneys, high intensity in HEK293-hACE2 xenografts, and moderate in liver
- tissue retention by imaging or organ counting [2]: limited or very low tissue retention
- accumulation in hACE2 transgenic mice compared to wild-type strain [3]: significantly higher accumulation in the heart, lung, liver, and intestine

SMILES: CC(C)C[C@H](NC(=O)[C@@H]1CCCN1C(=O)[C@H](CO)NC(=O)[C@H](CS)NC(=O)[C@H](Cc1c[nH]cn1)NC(=O)[C@H](CO)NC(=O)[C@H](Cc1ccc(O)cc1)NC(=O)[C@H](CC(=O)O)NC(=O)CNC(=O)CCC(C(=O)O)N1CCN(CC(=O)O)CCN(CC(=O)O)CC1)C(=O)N[C@@H](CCCNC(=N)N)C(=O)N[C@@H](Cc1ccc(O)cc1)C(=O)N[C@@H](Cc1ccc(O)cc1)C(=O)N1CCC[C@H]1C(=O)N[C@@H](Cc1c[nH]c2ccccc12)C(=O)N[C@@H](Cc1c[nH]c2ccccc12)C(=O)N[C@@H](CCCCN)C(=O)N[C@@H](CS)C(=O)N[C@H](C(=O)N[C@@H](Cc1ccc(O)cc1)C(=O)N1CCC[C@H]1C(=O)N[C@@H](CC(=O)O)C(=O)N1CCC[C@H]1C(=O)N[C@@H](CCC(=O)O)C(=O)NCC(=O)NCC(=O)NCC(N)=O)[C@@H](C)O (stereo partly shown) [64Cu-HZ-19, metal not drawn]
- clearance from the blood pool [1]: rapid
- liver retention [1]: increased liver retention

SMILES: CC(C)C[C@@H]1NC(=O)[C@@H]2CCCN2C(=O)[C@H](CO)NC(=O)[C@@H](NC(=O)[C@H](Cc2c[nH]cn2)NC(=O)[C@H](CO)NC(=O)[C@H](Cc2ccc(O)cc2)NC(=O)[C@H](CC(=O)O)NC(=O)CNC(=O)CN2CCN(CC(=O)O)CCN(CC(=O)O)CCN(CC(=O)O)CC2)CSSC[C@@H](C(=O)N[C@H](C(=O)N[C@@H](Cc2ccc(O)cc2)C(=O)N2CCC[C@H]2C(=O)N[C@@H](CC(=O)O)C(=O)N2CCC[C@H]2C(=O)N[C@@H](CCC(=O)O)C(=O)NCC(=O)NCC(=O)NCC(N)=O)[C@@H](C)O)NC(=O)[C@H](CCCCN)NC(=O)[C@H](Cc2c[nH]c3ccccc23)NC(=O)[C@H](Cc2c[nH]c3ccccc23)NC(=O)[C@@H]2CCCN2C(=O)[C@H](Cc2ccc(O)cc2)NC(=O)[C@H](Cc2ccc(O)cc2)NC(=O)[C@H](CCCNC(=N)N)NC1=O [68Ga-HZ20, metal not drawn]
- acute toxicity test ([4]; mouse, in vivo): well tolerated
- SUVmax, breast, young group ([5]; female volunteers <50 years, 90 min): 2.21±0.25
- SUVmax, breast, old group ([5]; female volunteers ≥50 years, 90 min): 1.35±0.22
- SUVmax, ovary ([5]; healthy females, 90 min): 2.12±1.42
- SUVmax, uterus ([5]; healthy females, 90 min): 2.41±0.34
- SUVmax, testis ([5]; healthy males, 90 min): 4.46±0.30
- SUVmax, left testis ([5]; healthy volunteers): 4.58±0.40
- SUVmax, renal cortex, left kidney ([5]; healthy volunteers): 22.18±1.78
- SUVmax, renal cortex, right kidney ([5]; healthy volunteers): 25.67±1.39
- SUVmax, right testis ([5]; healthy volunteers): 4.51±0.54
- SUVmax, conjunctiva [5, 10]: 1.71±0.08
- SUVmax, esophagus [5, 10]: 1.63±0.11
- SUVmax, liver [5, 10]: 1.59±0.14
- SUVmax, pancreas [5, 10]: 1.63±0.24
- SUVmax, rectum [5, 10]: 1.46±0.13
- SUVmax, renal cortex [5, 10]: 25.67±1.39
- SUVmax, renal medulla [5, 10]: 18.34±1.42
- SUV at 1.5 h ([6]; both, gallbladder): 2.14 ± 0.16 SUV
- SUV ([6]; both, other organs (relatively low uptake)): < 1.5 SUV
- SUV ([6]; both, renal cortex, corpus luteum, and testis (high uptake)): > 2.5 SUV
- SUV ([6]; female, breast, gallbladder, ovary, nasal mucosa, and esophagus (median uptake)): 1.5 SUV
- SUV ([6]; male, conjunctiva): 1.5 SUV
- SUVmax difference right minus left, confidence interval, eyes [7]: −0.09 to 0.10
- SUVmax difference right minus left, confidence interval, lungs [7]: −0.02 to 0.10
- SUVmax difference right minus left, confidence interval, renal cortex [7]: 3.77 to 10.90
- SUVmax difference right minus left, confidence interval, testis [7]: −0.38 to 0.25
- SUVmax, breast [7]: 2.72
- SUVmax, lung [7]: only low SUVmax
- SUVmax, small intestine [7]: 0.48
- SUVmax, testis [7]: 5.57
- blood-brain barrier penetration [7]: poor blood-brain barrier penetration
- stability [8]: stable within 2 h
- SUVmax, gallbladder [9]: 4.32
- SUVmax, left testis [9]: 8.65
- SUVmax, renal cortex [9]: 18.40
- SUVmax, renal cortex, left kidney [9]: 11.59
- SUVmax, renal cortex, right kidney [9]: 18.40
- SUVmax, right testis [9]: 8.79

SMILES: CC(=O)NCC(=O)N[C@@H](CC(=O)O)C(=O)N[C@@H](Cc1ccc(O)cc1)C(=O)N[C@@H](CO)C(=O)N[C@@H](Cc1cnc[nH]1)C(=O)N[C@H]1CSSC[C@@H](C(=O)N[C@H](C(=O)N[C@@H](Cc2ccc(O)cc2)C(=O)N2CCC[C@H]2C(=O)N[C@@H](CC(=O)O)C(=O)N2CCC[C@H]2C(=O)N[C@@H](CCC(=O)O)C(=O)NCC(=O)NCC(=O)NCC(N)=O)[C@@H](C)O)NC(=O)[C@H](CCCCN)NC(=O)[C@H](Cc2c[nH]c3ccccc23)NC(=O)[C@H](Cc2c[nH]c3ccccc23)NC(=O)[C@@H]2CCCN2C(=O)[C@H](Cc2ccc(O)cc2)NC(=O)[C@H](Cc2ccc(O)cc2)NC(=O)[C@H](CCCNC(=N)N)NC(=O)[C@H](CC(C)C)NC(=O)[C@@H]2CCCN2C(=O)[C@H](CO)NC1=O [DX600]
- body weight, experimental group versus control group ([4]; 200 μg/200 μL on day 0, 4, 11, 18 and 25): no significant difference
- body weight, start of monitoring ([4]; experimental group n=5): 26.5 ± 5.2 g
- body weight, end of monitoring ([4]; experimental group n=5, 25 days): 41.2 ± 3.1 g
